Test results from US20030165997, “Zinc finger domain libraries” (published 2003).

Columns and labels:
ZFP 24 CSNR1-QSHT-RSNR = ZFP 24 CSNR1-QSHT-RSNR (synthetic); test: cell_activity; HEK293 luciferase repression; settings: tags: HA tag and NLS (P3 vector)
Description: (§1) The in vivo activity assay for a particular three-finger protein was carried out as follows. HEK 293 cells were transfected with four plasmids: 14 ng of a plasmid expressing the particular three-finger protein; 14 ng of the reporter plasmid described above; 70 ng of a plasmid that expresses GAL4-VP 16; and 1.4 ng of a plasmid that expresses Renillar luciferase. The GAL4-VP 16 activates transcription of the minimal synthetic promoter in the reporter so that the repression effected by a particular three-finger protein could be clearly detected and compared to other three-finger proteins. The plasmid expressing Renillar luciferase provides a control of transfection efficiency.
(§2) Lipofectamine (Gibco-BRL) was used for the transfection procedures. Cells were transfected at 30-50% confluency in wells of a 96 well plate. The cells were incubated for two days prior to harvesting for the luciferase assay. Then luciferase activities were measured using the Dual-Luciferase™ Reporter Assay System (Promega). The observed firefly luciferase activity was normalized using the observed level of Renilla luciferase. The extent of repression or “fold-repression” was calculated by dividing a value for normalized reporter expression in the absence of a zinc finger protein by a value for normalized reporter expression in the presence of the zinc finger protein.
(§3) A total of 153 three-finger chimeric proteins were constructed from both the “zinc finger protein-first” and the “target site-first” approaches. These proteins were tested using the transient cotransfection assay described in Example 68.

ZFP 33 QSNV2-RSHR-RDER1 = ZFP 33 QSNV2-RSHR-RDER1 (Homo sapiens); test: cell_activity; HEK 293 luciferase; settings: tags: HA, NLS
ZFP 33 QSNV2-RSHR-RDER1 (Homo sapiens), sequence (chain, as listed by the source): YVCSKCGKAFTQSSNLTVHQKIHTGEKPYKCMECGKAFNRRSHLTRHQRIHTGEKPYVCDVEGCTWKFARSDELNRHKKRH
Description: as §1, §2, §3

[1] = biological target: T1, Zif268 zinc finger protein (three fingers) (UniProt P08046 SEQ:1-89); test: EMSA; Zn2+, Mg2+, pH 7.7, RT; no yeast growth; 1.5-fold repression (Table 8)
ZFP 1 RSNR-RDHT-RSNR = ZFP 1 RSNR-RDHT-RSNR (synthetic); test: cell_activity; HEK293 luciferase repression of GAL4-VP16 activated reporter; settings: tags: HA tag and NLS (P3 vector)
ZFP 1 RSNR-RDHT-RSNR (synthetic), sequence (chain, as listed by the source): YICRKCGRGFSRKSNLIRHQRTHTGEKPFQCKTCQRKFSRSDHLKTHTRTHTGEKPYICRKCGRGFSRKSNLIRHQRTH
Description: as §1
(§4) Lipofectamine (Gibco-BRL) was used for the transfection procedures. Cells were transfected at 30-50% confluency in wells of a 96 well plate. The cells were incubated for two days prior to harvesting for the luciferase assay. Then luciferase activities were measured using the Dual-Luciferase™ Reporter Assay System (Promega). The observed firefly luciferase activity was normalized using the observed level of Renilla luciferase. The extent of repression or “fold-repression” was calculated by dividing a value for normalized reporter expression in the absence of a zinc finger protein by a value for normalized reporter expression in the presence of the zinc finger protein. […]

ZFP 29 QSNR3-RDHT-RSNR = ZFP 29 QSNR3-RDHT-RSNR (synthetic); test: cell_activity; HEK293 luciferase repression; settings: tags: HA tag and NLS (P3 vector)
ZFP 29 QSNR3-RDHT-RSNR (synthetic), sequence (chain, as listed by the source): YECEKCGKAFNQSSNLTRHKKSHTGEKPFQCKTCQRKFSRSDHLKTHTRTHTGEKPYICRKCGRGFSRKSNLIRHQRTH
Description: as §1, §2, §3

ZFP 10 RDHT-RSHR-QSHR2 = ZFP 10 RDHT-RSHR-QSHR2 (synthetic); test: cell_activity; HEK293 luciferase repression; settings: tags: HA tag and NLS (P3 vector)
ZFP 10 RDHT-RSHR-QSHR2 (synthetic), sequence (chain, as listed by the source): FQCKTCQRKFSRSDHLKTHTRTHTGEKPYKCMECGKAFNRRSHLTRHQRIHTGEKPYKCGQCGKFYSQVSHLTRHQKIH
Description: as §1, §2, §3

ZFP 18 RDER1-QSSR1-QSHT = ZFP 18 RDER1-QSSR1-QSHT (synthetic); test: cell_activity; HEK293 luciferase repression; settings: tags: HA tag and NLS (P3 vector)
ZFP 18 RDER1-QSSR1-QSHT (synthetic), sequence (chain, as listed by the source): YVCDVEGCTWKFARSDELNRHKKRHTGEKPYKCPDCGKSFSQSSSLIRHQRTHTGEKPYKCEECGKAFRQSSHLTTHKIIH
Description: as §1, §2, §3

ZFP 27 RSHR-RDER1-RSHR = ZFP 27 RSHR-RDER1-RSHR (synthetic); test: cell_activity; HEK293 luciferase repression; settings: tags: HA tag and NLS (P3 vector)
ZFP 27 RSHR-RDER1-RSHR (synthetic), sequence (chain, as listed by the source): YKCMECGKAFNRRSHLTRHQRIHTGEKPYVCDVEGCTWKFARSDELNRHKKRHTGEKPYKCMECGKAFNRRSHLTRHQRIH
Description: as §1, §2, §3

ZFP 22 RSNR-VSSR-RSHR = ZFP 22 RSNR-VSSR-RSHR (synthetic); test: cell_activity; HEK293 luciferase repression; settings: tags: HA tag and NLS (P3 vector)
ZFP 22 RSNR-VSSR-RSHR (synthetic), sequence (chain, as listed by the source): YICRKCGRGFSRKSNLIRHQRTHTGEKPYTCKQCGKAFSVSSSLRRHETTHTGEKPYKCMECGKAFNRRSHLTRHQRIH
Description: as §1, §2, §3

ZFP 23 RDHT-RSNR-QSNR3 = ZFP 23 RDHT-RSNR-QSNR3 (synthetic); test: cell_activity; HEK293 luciferase repression; settings: tags: HA tag and NLS (P3 vector)
ZFP 23 RDHT-RSNR-QSNR3 (synthetic), sequence (chain, as listed by the source): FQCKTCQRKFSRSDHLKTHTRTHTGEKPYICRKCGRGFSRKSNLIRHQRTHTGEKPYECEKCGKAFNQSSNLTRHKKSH
Description: as §1, §2, §3

ZFP 8 RSNR-QSHR2-QSSR1 = ZFP 8 RSNR-QSHR2-QSSR1 (synthetic); test: cell_activity; HEK293 luciferase repression; settings: tags: HA tag and NLS (P3 vector)
ZFP 8 RSNR-QSHR2-QSSR1 (synthetic), sequence (chain, as listed by the source): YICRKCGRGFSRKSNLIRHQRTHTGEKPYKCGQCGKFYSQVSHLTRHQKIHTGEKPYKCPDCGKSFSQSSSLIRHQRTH
Description: as §1, §2, §3

[2] = biological target: T1, Zif268 zinc finger protein (three …); test: EMSA; Zn2+, Mg2+, pH 7.7, RT; no yeast growth; 1.2-fold repression (Table 8)
[3] = biological target: T1, Zif268 zinc finger protein (three …); test: EMSA; Zn2+, Mg2+, pH 7.7, RT; no yeast growth; 1.6-fold repression (Table 8)
ZFP 6 RSHR-RDER1-RDHT = ZFP 6 RSHR-RDER1-RDHT (synthetic); test: cell_activity; HEK293 luciferase repression; settings: tags: HA tag and NLS (P3 vector)
ZFP 6 RSHR-RDER1-RDHT (synthetic), sequence (chain, as listed by the source): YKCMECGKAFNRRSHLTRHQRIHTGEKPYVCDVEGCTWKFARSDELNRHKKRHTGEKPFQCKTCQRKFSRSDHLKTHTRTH
Description: as §1, §2, §3

ZFP 30 RSHR-RSHR-QSHR2 = ZFP 30 RSHR-RSHR-QSHR2 (synthetic); test: cell_activity; HEK293 luciferase repression; settings: tags: HA tag and NLS (P3 vector)
ZFP 30 RSHR-RSHR-QSHR2 (synthetic), sequence (chain, as listed by the source): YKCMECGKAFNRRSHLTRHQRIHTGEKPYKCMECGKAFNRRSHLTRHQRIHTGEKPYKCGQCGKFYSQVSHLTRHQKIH
Description: as §1, §2, §3

ZFP 7 RDHT-QSNV2-RSHR = ZFP 7 RDHT-QSNV2-RSHR (synthetic); test: cell_activity; HEK293 luciferase repression; settings: tags: HA tag and NLS (P3 vector)
ZFP 7 RDHT-QSNV2-RSHR (synthetic), sequence (chain, as listed by the source): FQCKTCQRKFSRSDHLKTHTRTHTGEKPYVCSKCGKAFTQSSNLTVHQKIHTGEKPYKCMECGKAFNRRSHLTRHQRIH
Description: as §1, §2, §3

ZFP 25 QSNR3-RDER1-RSNR = ZFP 25 QSNR3-RDER1-RSNR (synthetic); test: cell_activity; HEK293 luciferase repression; same pair listed again as entry 61 with 1.5; settings: tags: HA tag and NLS (P3 vector)
ZFP 25 QSNR3-RDER1-RSNR (synthetic), sequence (chain, as listed by the source): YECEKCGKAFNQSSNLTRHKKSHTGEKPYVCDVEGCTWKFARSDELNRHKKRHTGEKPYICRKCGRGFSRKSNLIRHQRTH
Description: as §1, §4

ZFP 24 CSNR1-QSHT-RSNR (synthetic), sequence (chain, as listed by the source): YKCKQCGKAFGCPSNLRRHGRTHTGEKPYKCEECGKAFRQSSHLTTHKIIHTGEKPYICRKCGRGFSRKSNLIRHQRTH

B1: target 24 (dsDNA)
DNA 1: GAGTGAGACC
DNA 2: GGTCTCACTC
For B1, the activity (ZFP 24 CSNR1-QSHT-RSNR) was 2.1 fold repression.

B2: target 33 (dsDNA)
DNA 1: GTGGGGAAAA
DNA 2: TTTTCCCCAC
In the case of B2, the activity (ZFP 33 QSNV2-RSHR-RDER1) is reported as 1.9 fold repression.

B3: GCTT probe (dsDNA)
DNA 1: CCGGGTCGTGCTTGGGCGGTACCG
DNA 2: TCGACGGTACCGCCCAAGCACGAC
B3 gave a Kd [1] of 2.1 nM.

B4: target 1 (dsDNA)
DNA 1: GAGAGGGAGC
DNA 2: GCTCCCTCTC
For B4, the activity (ZFP 1 RSNR-RDHT-RSNR) was 8.1 fold repression.

B5: target 29 (dsDNA)
DNA 1: GAGTGGGAAA
DNA 2: TTTCCCACTC
B5 showed an activity (ZFP 29 QSNR3-RDHT-RSNR) of 2 fold repression.

B6: target 10 (dsDNA)
DNA 1: GGAGGGTGG
DNA 2: CCACCCTCC
Binder B6 has an activity (ZFP 10 RDHT-RSHR-QSHR2) of 3.1 fold repression.

B7: target 18 (dsDNA)
DNA 1: CGAGCAGCG
DNA 2: CGCTGCTCG
In the case of B7, the activity (ZFP 18 RDER1-QSSR1-QSHT) is reported as 2.2 fold repression.

B8: target 27 (dsDNA)
DNA 1: GGGGTGGGG
DNA 2: CCCCACCCC
Binder B8 has an activity (ZFP 27 RSHR-RDER1-RSHR) of 2 fold repression.

B9: target 22 (dsDNA)
DNA 1: GGGGTTGAG
DNA 2: CTCAACCCC
Binder B9 has an activity (ZFP 22 RSNR-VSSR-RSHR) of 2.1 fold repression.

B10: target 23 (dsDNA)
DNA 1: GAAGAGAGGT
DNA 2: ACCTCTCTTC
Binder B10 has an activity (ZFP 23 RDHT-RSNR-QSNR3) of 2.1 fold repression.

B11: target 8 (dsDNA)
DNA 1: GTAGGAGAGT
DNA 2: ACTCTCCTAC
Binder B11 has an activity (ZFP 8 RSNR-QSHR2-QSSR1) of 3.3 fold repression.

B12: GACT probe (dsDNA)
DNA 1: CCGGGTCGGGACTGGGCGGTACCG
DNA 2: TCGACGGTACCGCCCAGTCCCGAC
With B12 the Kd [2] was 4.9 nM.

B13: GAGC probe (dsDNA)
DNA 1: CCGGGTCGCGAGCGGGCGGTACCG
DNA 2: TCGACGGTACCGCCCGCTCGCGAC
For B13, the Kd [3] was 2.3 nM.

B14: target 6 (dsDNA)
DNA 1: AGGGCGGGGC
DNA 2: GCCCCGCCCT
With B14 the activity (ZFP 6 RSHR-RDER1-RDHT) was 3.6 fold repression.

B15: target 30 (dsDNA)
DNA 1: GGAGGGGGGC
DNA 2: GCCCCCCTCC
B15 showed an activity (ZFP 30 RSHR-RSHR-QSHR2) of 2 fold repression.

B16: target 7 (dsDNA)
DNA 1: GGGAAACGGG
DNA 2: CCCGTTTCCC
B16 showed an activity (ZFP 7 RDHT-QSNV2-RSHR) of 3.6 fold repression.

B17: target 25 (dsDNA)
DNA 1: GAGGCGGAAA
DNA 2: TTTCCGCCTC
B17 was tested, and the activity (ZFP 25 QSNR3-RDER1-RSNR) was 2.1 fold repression.
